Consider eight substances from US20250320281A1.

Holding throughout (assay): cell-based or functional assay
In test [1] the target is HIV-1 Env of pseudovirus MGRM-Chronic-B-018 (HIV-1).
Test [2] concerns the target HIV-1 Env of isolate 92UG046 (clade D pseudovirus) (HIV-1).
Test [3] deals with HIV-1 Env of isolate 93TH305, clade B, on pseudovirus (HIV-1).
In test [4] the target is HIV-1 Env of pseudovirus MGRM-G-004 (clade G) (HIV-1).
Test [5] has as its target HIV-1 envelope glycoprotein (Env) of isolate MGRM-A-001, clade A (HIV-1).
For test [6], the target named is aMLV envelope protein on pseudovirus (negative control).
In test [7] the target is HIV-1 envelope glycoprotein (Env) of isolate 92UG031, clade A (HIV-1).
The target of test [8] is HIV-1 Env of pseudovirus MGRM-F1-020 (HIV-1).
The target in test [9] is HIV-1 Env of isolate 92UG001 (clade D pseudovirus) (HIV-1).
In test [10] the target is HIV-1 Env of pseudovirus CMU02 (clade CRF01_AE) (HIV-1).
The target in test [11] is HIV-1 Env of pseudovirus MGRM-G-009 (clade G) (HIV-1).
Test [12] has as its target HIV-1 Env of isolate MGRM-D-020 (clade D pseudovirus) (HIV-1).
In test [13] the target is HIV-1 envelope glycoprotein (Env) of isolate MGRM-A-005, clade A (HIV-1).
The target in test [14] is HIV-1 Env of pseudovirus MGRM-Chronic-B-020 (HIV-1).
The target of test [15] is HIV-1 Env of isolate APV_13, clade B, on pseudovirus (HIV-1).
The target of test [16] is HIV-1 Env of isolate APV_6, clade B, on pseudovirus (HIV-1).
Test [17] concerns the target HIV-1 Env of pseudovirus MGRM-G-028 (HIV-1, clade G isolate MGRM-G-028).
In test [18] the target is HIV-1 Env of isolate 98CN006 (pseudovirus) (HIV-1).
Test [19] deals with HIV-1 Env of isolate 92TH021 (clade AE), on pseudovirus (HIV-1).
The target of test [20] is HIV-1 Env of isolate MGRM-AG-011 (HIV-1).
In test [21] the target is HIV-1 Env of isolate MGRM-Chronic-B-003 (subtype B pseudovirus) (HIV-1).
The target of test [22] is HIV-1 Env of isolate VLGCB3 (subtype B pseudovirus) (HIV-1).
In test [23] the target is HIV-1 Env of isolate MGRM-Chronic-B-017 (subtype B pseudovirus) (HIV-1).
Test [24] deals with HIV-1 Env of isolate 92UG046 (pseudovirus) (HIV-1).
In test [25] the target is HIV-1 Env of isolate MGRM-D-005 (pseudovirus) (HIV-1).
Test [26] has as its target HIV-1 Env of isolate MGRM-D-002 (pseudovirus) (HIV-1).
For test [27], the target named is HIV-1 Env of isolate MGRM-C-026 (HIV-1).
The target of test [28] is aMLV envelope, on pseudovirus (negative control virus).
The target in test [29] is HIV-1 Env of isolate MGRM-F1-017 (HIV-1).
Test [30] has as its target HIV-1 Env of isolate PVO.4 (subtype B pseudovirus) (HIV-1).
Test [31] addresses HIV-1 Env of isolate MGRM-C-027 (HIV-1).
The target in test [32] is HIV-1 94UG103 Env (pseudovirus, clade A) (HIV-1).
The target of test [33] is HIV-1 MGRM-C-026 Env (pseudovirus, clade C) (HIV-1).
In test [34] the target is HIV-1 APV17 Env (pseudovirus) (HIV-1).
The target in test [35] is HIV-1 Env of isolate MGRM-D-018 (clade D), on pseudovirus (HIV-1).

What is called IC50 is the concentration that inhibits the measured activity by half. Read a high IC50 as weaker potency.

For 2F5 (antibody), the IC50 (µg/ml), pseudovirus neutralization in test [1] was 10.8 µg/mL; in test [2], more than 50 µg/mL; in test [3] it was 7.61 µg/mL; in [5], more than 50 µg/mL; in test [7], 3.81 µg/mL; in test [8], 0.59 µg/mL. Further, the IC50 (µg/ml), pseudovirus neutralization in test [9] was 13 µg/mL; in [12] it was more than 50 µg/mL; in test [13] it was 5.7 µg/mL; in test [14], 0.78 µg/mL; in [15] it was 3.81 µg/mL; in test [16] it was 0.25 µg/mL. In test [17], this substance yielded an IC50 (µg/ml), pseudovirus neutralization of 2.24 µg/mL. Besides, the figures for the IC50 in test [4], in test [10] and in test [11] were more than 50 µg/mL, 0.6 µg/mL and 7.21 µg/mL, respectively. This substance had an IC90 (pseudovirus neutralization) in [6] of more than 50 µg/mL.

With 1495_C14 (PGC14) (antibody), the IC50 (µg/ml), pseudovirus neutralization is more than 50 µg/mL in test [1]; more than 50 µg/mL in test [2]; 6 µg/mL in test [3]; more than 50 µg/mL in test [5]; more than 50 µg/mL in test [7]; more than 50 µg/mL in test [8]. The IC50 (µg/ml), pseudovirus neutralization in [9] was more than 50 µg/mL; in test [12] it was more than 50 µg/mL; in test [13], more than 50 µg/mL; in test [14] it was more than 50 µg/mL; in test [15] it was more than 50 µg/mL; in [16] it was 23 µg/mL. In [17], this substance registered an IC50 (µg/ml), pseudovirus neutralization of more than 50 µg/mL. For the same substance, the IC50 in [4], in test [10] and in test [11] was more than 50 µg/mL throughout.

For 4838_L06 (PGT-121) (antibody), the IC50, pseudovirus neutralization in test [18] was 0.01 µg/mL; in test [19] it was more than 10 µg/mL; in [24], more than 50 µg/mL; in test [25], more than 50 µg/mL; in test [26], 0.006 µg/mL; in [28] it was more than 10 µg/mL. The substance also returned an IC50 in [20] of more than 50 µg/mL. Moreover, the IC50 (µg/mL), pseudovirus neutralization in test [21] is 0.011 µg/mL; in [22], 0.005 µg/mL; in test [23], more than 50 µg/mL; in test [29] it was 16.9 µg/mL; in test [30], 0.137 µg/mL. The neutralization IC50 in [27] came to 0.002 µg/mL; in test [31], 0.011 µg/mL.

Regarding 4858_P08 (PGT-123) (antibody), the IC50 neutralization in [32] worked out at 0.846 µg/mL; in test [33] it was 0.0031 µg/mL. In addition, the IC50, pseudovirus neutralization in test [18] is 0.008 µg/mL; in test [19], more than 10 µg/mL; in test [35], 0.0047 µg/mL; in test [24], more than 50 µg/mL; in [25] it was more than 50 µg/mL; in [26] it was 0.012 µg/mL. The same substance gave an IC50, pseudovirus neutralization in [28] of more than 10 µg/mL. This substance also registered an IC50 in test [20] of more than 50 µg/mL. The IC50 (µg/mL), pseudovirus neutralization in test [21] was 0.008 µg/mL; in test [22] it was 0.004 µg/mL; in test [23], more than 50 µg/mL; in [29], more than 50 µg/mL; in test [30], 0.105 µg/mL. Also, in test [34], the neutralization IC50 (pseudovirus) came to 0.18 µg/mL. Further, the neutralization IC50 in [27] was found to be 0.001 µg/mL; in [31], 0.02 µg/mL.

On to 4877_D15 (PGT-122) (antibody), for which the values for the IC50 neutralization in test [32] and in test [33] were 1.46 µg/mL and 0.0089 µg/mL, respectively. The IC50, pseudovirus neutralization in [18] is 0.021 µg/mL; in [19] it was more than 10 µg/mL; in test [35], 0.0115 µg/mL; in [24], more than 50 µg/mL; in test [25], more than 50 µg/mL; in [26] it was 0.005 µg/mL. The substance further showed an IC50, pseudovirus neutralization in [28] of more than 10 µg/mL. In test [20], this substance showed an IC50 of more than 50 µg/mL. The IC50 (µg/mL), pseudovirus neutralization in test [21] was 0.008 µg/mL; in [22], 0.008 µg/mL; in test [23], 5.66 µg/mL; in test [29] it was more than 50 µg/mL; in test [30], 0.689 µg/mL. The same substance had a neutralization IC50 (pseudovirus) in [34] of 0.522 µg/mL. Besides, the figures for the neutralization IC50 in test [27] and in test [31] were 0.006 µg/mL and 0.039 µg/mL, respectively.

Regarding 5123_A06 (PGT-125) (antibody), the IC50 neutralization in [32] was determined as 0.0124 µg/mL; in test [33], 0.0106 µg/mL. Further, the IC50, pseudovirus neutralization in test [18] was 0.201 µg/mL; in test [19], 0.0066 µg/mL; in [35], 0.0382 µg/mL; in test [24], more than 50 µg/mL; in test [25] it was more than 50 µg/mL; in test [26], 0.118 µg/mL. For the same substance, in [28], the IC50, pseudovirus neutralization was more than 10 µg/mL. For the same substance, in test [20], the IC50 is more than 50 µg/mL. The IC50 (µg/mL), pseudovirus neutralization in test [21] was 0.157 µg/mL; in [22], 0.015 µg/mL; in test [23], more than 50 µg/mL; in [29] it was more than 50 µg/mL; in [30], 0.042 µg/mL. This substance also registered a neutralization IC50 (pseudovirus) in test [34] of 7.31 µg/mL. The neutralization IC50 in test [27] is 0.005 µg/mL; in [31] it was more than 50 µg/mL.

Consider 5141_B17 (PGT-126) (antibody), for which the results for the IC50 neutralization in test [32] and in test [33] were 0.0091 µg/mL and 0.0076 µg/mL, respectively. Further, the IC50, pseudovirus neutralization is 0.046 µg/mL in test [18]; 0.115 µg/mL in [19]; more than 10 µg/mL in test [6]; 0.0093 µg/mL in test [35]; more than 50 µg/mL in test [24]; 0.792 µg/mL in [25]. Also, the IC50, pseudovirus neutralization in test [26] is 0.039 µg/mL; in test [28], more than 10 µg/mL. This substance also yielded an IC80 (pseudovirus neutralization) in test [6] of more than 10 µg/mL. For the same substance, in test [6], the IC90 (pseudovirus neutralization) is more than 10 µg/mL. This substance also showed an IC95 (pseudovirus neutralization) in [6] of more than 10 µg/mL. In [20], the IC50 amounted to 24.5 µg/mL. Besides, the IC50 (µg/mL), pseudovirus neutralization in [21] was 0.041 µg/mL; in test [22], 0.007 µg/mL; in [23] it was more than 50 µg/mL; in [29] it was more than 50 µg/mL; in test [30], 0.017 µg/mL. In [34], this substance had a neutralization IC50 (pseudovirus) of 0.501 µg/mL. Moreover, the neutralization IC50 in test [27] is 0.007 µg/mL; in test [31] it was 15.6 µg/mL.

For the substance 5145_B14 (PGT-127) (antibody), the IC50, pseudovirus neutralization in test [18] is 0.067 µg/mL; in test [24] it was more than 50 µg/mL; in test [25], 6.02 µg/mL; in test [26], 0.6 µg/mL. The same substance displayed an IC50 in test [20] of more than 50 µg/mL. Besides, the IC50 (µg/mL), pseudovirus neutralization in [21] was 0.12 µg/mL; in test [22], 0.022 µg/mL; in test [23], more than 50 µg/mL; in test [29] it was more than 50 µg/mL; in [30] it was 0.164 µg/mL. The neutralization IC50 is 0.014 µg/mL in [27] and more than 50 µg/mL in [31].
